Consider ten molecules from US20180155451A1 (published 2018).

Substitutions are numbered along the chain they refer to.

The labels stand for the following.
B1: H240-FA009/H240-FB016/L73-k0 (antibody, human IgG1, kappa)
heavy 1: QDQLVQSGAEVKKPGASVKVSCKASGFNIKDTYIQWVRQAPGQGLEWMGRIDPLRKQTKYREKFEGRVTITADTSTNTAYMELSSLRSEDTAVYYCVRSGREFDYWGQGTLVTVSSASTKGPSVFPLAPSSKSTSGGTAALGCLVKDYFPEPVTVSWNSGALTSGVHTFPAVLQSSGLYSLSSVVTVPSSSLGTKTYICNVNHKPSNTKVDKKVEPKSCDKTHTCPPCPAPEYYWGPSVFLFPPKPKDTLMISRTPEVTCVVVDVSDEEPEVKFNWYVDGVEVHNAKTKPREEQYNATYRVVSVLTVLHQDWLNGKEYKCKVSNKALPAPIEKTISKAKGQPREPQVYTLPPSRKEMTKNQVSLTCLVKGFYPSDIAVEWESNGQPENNYKTTPPVLDSDGSFFLYSKLTVDKSRWQQGNVFSCSVMHEALHNRYTQKSLSLSP
heavy 2: QDQLVQSGAEVKKPGASVKVSCKASGFNIKDTYIQWVRQAPGQGLEWMGRIDPLRKQTKYREKFEGRVTITADTSTNTAYMELSSLRSEDTAVYYCVRSGREFDYWGQGTLVTVSSASTKGPSVFPLAPSSKSTSGGTAALGCLVKDYFPEPVTVSWNSGALTSGVHTFPAVLQSSGLYSLSSVVTVPSSSLGTQTYICNVDHKPSNTKVDKKVEPKSCDKTHTCPPCPAPELLGGPSVFLFPPKPKDTLMISRTPEVTCVVVDVSHEEPEVQFNWYVDGVEVHNAKTKPREEQYNSTYRVVSVLTVLHQDWLNGKEYKCKVSNDALPMPIEETISKAKGQPREPQVYTLPPSREEMTKNQVSLTCLVKGFYPSDIAVEWESNGQPENNYKTTPPVLDSDGSFFLYSKLTVDKSRWQQGNVFSCSVMHEALHNHYTQESLSLSP
light: DIQMTQSPSSLSASVGDRVTITCRASQDIHKYIAWYQQKPGQAPRLLIQYTSTLQPGVPSRFSGSGSGTDYTFTISSLQPEDIATYYCLQYEQLRTFGGGTKVEIKRTVAAPSVFIFPPSDEQLKSGTASVVCLLNNFYPREAKVQWKVDNALQSGNSQESVTEQDSKDSTYSLSSTLTLSKADYEKHKVYACEVTHQGLSSPVTKSFNRGEC
notes: Heterodimerized anti-EREG IgG1 antibody; A chain altered from H240-AK072, B chain altered from H240-BH076
B2: H240-FA009/H240-FB020/L73-k0 (antibody, human IgG1, kappa)
heavy 1: B1 heavy 1
heavy 2: B1 heavy 2 with K146E, D202N
light: B1 light
notes: as for B1
B3: H240-FA009/H240-FB052/L73-k0 (antibody, human IgG1, kappa)
heavy 1: B1 heavy 1
heavy 2: B1 heavy 2 with D202N, K213T
light: B1 light
notes: as for B1
B4: H240-FA030/H240-FB001/L73-k0 (antibody, human IgG1, kappa)
heavy 1: B1 heavy 1 with I198T, E271K
heavy 2: B1 heavy 2 with D202N
light: B1 light
notes: as for B1
B5: H240-FA012/H240-FB001/L73-k0 (antibody, human IgG1, kappa)
heavy 1: B1 heavy 1 with E271K
heavy 2: B1 heavy 2 with D202N
light: B1 light
notes: as for B1
B6: H240-FA009/H240-FB047/L73-k0 (antibody, human IgG1, kappa)
heavy 1: B1 heavy 1
heavy 2: B1 heavy 2 with D202N, N383E
light: B1 light
notes: as for B1
B7: H240-FA009/H240-FB017/L73-k0 (antibody, human IgG1, kappa)
heavy 1: B1 heavy 1
heavy 2: B1 heavy 2 with G136E
light: B1 light
notes: as for B1
B8: H240-FA024/H240-FB001/L73-k0 (antibody, human IgG1, kappa)
heavy 1: B1 heavy 1 with I198T, E271K, M357K
heavy 2: B1 heavy 2 with D202N
light: B1 light
notes: as for B1
B9: H240-FA009/H240-FB021/L73-k0 (antibody, human IgG1, kappa)
heavy 1: B1 heavy 1
heavy 2: B1 heavy 2 with D202N, K287E
light: B1 light
notes: as for B1
B10: H240-FA009/H240-FB033/L73-k0 (antibody, human IgG1, kappa)
heavy 1: B1 heavy 1
heavy 2: B1 heavy 2 with G137E, D202N
light: B1 light
notes: as for B1

Usually Kd stands for the equilibrium constant for the complex coming apart. Higher therefore signals weaker binding.

T1 sequence (P12314 16-292): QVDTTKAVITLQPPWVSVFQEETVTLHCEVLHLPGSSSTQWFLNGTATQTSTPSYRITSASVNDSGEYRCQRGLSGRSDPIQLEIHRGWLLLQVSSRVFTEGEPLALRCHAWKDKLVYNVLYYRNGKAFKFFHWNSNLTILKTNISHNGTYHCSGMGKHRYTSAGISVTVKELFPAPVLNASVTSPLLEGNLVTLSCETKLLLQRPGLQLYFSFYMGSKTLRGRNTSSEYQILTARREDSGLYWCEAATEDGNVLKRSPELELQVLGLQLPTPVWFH

One experiment has as its target T1, FcγRIa extracellular domain with C-terminal His tag (human, UniProt P12314 16-292).
T1 construct: extracellular domain; also called FcgRI; FcgRIa; not shown: His tag at the C terminus
Description: SPR (Biacore), antibody captured on chip, soluble FcgR as analyte; experiment 2. The method, then: (§1) Antibodies of interest were analyzed for the interaction to FcgR according to the method described in Reference Example 8.
(§2) Analysis of interaction between obj ective antibody and the FcγR was carried out using Biacore T100 (GE Healthcare), Biacore T200, Biacore A100, and Biacore 4000. HBS-EP+ (GE Healthcare) was used as the running buffer, and the measurement temperature was set to 25° C. Chips produced by immobilizing the antigen peptide by the amine coupling method to a Series S sensor Chip CM5 (GE Healthcare), chips produced by allowing preliminarily biotinylated antigen peptides to interact with and immobilize onto a Series S Sensor Chip SA (certified) (GE Healthcare), chips produced by immobilizing Protein L (ACTIGEN, BioVision) to Series S Sencor Chip CM5 (GE Healthcare), or chips produced by immobilizing Protein A/G (Thermo Scientific) to Series S Sencor Chip CM5 (GE Healthcare) were used. Antibodies of interest were captured onto these chips, and allowed to interact to each FcγR diluted with running buffer. To regenerate and repeatedly use the chip, the antibodies captured onto the chip were washed off by reacting 10 mM glycine-HCl, pH 1.5.
B1: the Kd stood at 0.13 nM.

B2 returned a Kd of 0.12 nM.

B3: binding was put at a Kd of 0.051 nM.

Take B4: the affinity, expressed as Kd, was 0.036 nM.

In turn, B5 returned a Kd of 0.076 nM.

Molecule B6 displayed a Kd of 0.05 nM.

The molecule B7 came in with a Kd of 0.11 nM.

As to B8, the Kd is 1.8 nM.

For B9, binding was characterised by a dissociation constant (Kd) of 0.051 nM.

For B10, the Kd was 0.12 nM.

Another experiment has as its target T2, FcγRIIa R type extracellular domain with C-terminal His tag (human, UniProt P12318 34-217).
T2 construct: extracellular domain; also called FcgRIIa R; FcgRIIaR; not shown: His tag at the C terminus
T2 sequence (looked up): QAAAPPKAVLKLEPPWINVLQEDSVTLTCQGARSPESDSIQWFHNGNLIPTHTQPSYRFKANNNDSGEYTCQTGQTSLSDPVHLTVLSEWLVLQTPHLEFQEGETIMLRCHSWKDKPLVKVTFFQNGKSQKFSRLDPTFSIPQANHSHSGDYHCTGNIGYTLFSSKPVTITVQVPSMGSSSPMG
The description is as above. The method, then:
as §1, §2
The molecule B1 had a Kd of 250 nM.

As for B2, the affinity, expressed as Kd, was 250 nM.

Take B3: the Kd amounted to 270 nM.

B4 returned a Kd of 440 nM.

Molecule B5 displayed a Kd of 350 nM.

Take B6: the Kd worked out at 270 nM.

Molecule B7 displayed a Kd of 230 nM.

With B8, the affinity, expressed as Kd, was 370 nM.

Turning to B9, the Kd worked out at 280 nM.

Consider B10, for which binding was put at a Kd of 310 nM.

A further experiment deals with T3, FcγRIIa H type extracellular domain with C-terminal His tag (human, UniProt P12318 34-217).
T3 construct: extracellular domain; also called FcgRIIa H; FcgRIIaH; not shown: His tag at the C terminus
T3 sequence (looked up): T2 sequence (looked up) with R134H
The experiment is described as above. The procedure:
as §1, §2
As to B1, the Kd is 70 nM.

B2 had a Kd of 64 nM.

B3 displayed a dissociation constant Kd of 72 nM.

Molecule B4 displayed a Kd of 120 nM.

Turning to B5, the dissociation constant Kd amounted to 110 nM.

B6: the Kd is 74 nM.

The molecule B7 showed a Kd of 61 nM.

B8 came in with a Kd of 110 nM.

B9 returned a Kd of 70 nM.

As to B10, the Kd was determined as 80 nM.

Another experiment addresses T4, FcγRIIb extracellular domain with C-terminal His tag (human, UniProt P31994 43-217).
T4 construct: extracellular domain; also called FcgRIIb; 2b; not shown: His tag at the C terminus
T4 sequence (looked up): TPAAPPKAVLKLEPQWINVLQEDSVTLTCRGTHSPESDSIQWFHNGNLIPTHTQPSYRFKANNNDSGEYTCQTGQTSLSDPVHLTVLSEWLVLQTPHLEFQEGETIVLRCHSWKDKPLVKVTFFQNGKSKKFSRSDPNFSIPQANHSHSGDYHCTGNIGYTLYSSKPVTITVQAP
The description is as above. The procedure: as §1, §2
For B1, binding was characterised by a dissociation constant (Kd) of 1400 nM.

As to B2, the Kd was determined as 1400 nM.

With B3, the Kd was 1400 nM.

For B4, binding was characterised by a dissociation constant (Kd) of 3300 nM.

The molecule B5 registered a Kd of 1700 nM.

Regarding B6, the Kd is 1700 nM.

With B7, the affinity, expressed as Kd, was 1400 nM.

As to B8, binding was put at a Kd of 2000 nM.

Molecule B9 registered a Kd of 2200 nM.

As to B10, the Kd was 1600 nM.

For another experiment, the target named is T5, FcγRIIIa F type extracellular domain with C-terminal His tag (human, UniProt P08637 17-208).
T5 construct: extracellular domain; also called FcgRIIIa F; FcgRIIIaF; not shown: His tag at the C terminus
T5 sequence (P08637 17-208): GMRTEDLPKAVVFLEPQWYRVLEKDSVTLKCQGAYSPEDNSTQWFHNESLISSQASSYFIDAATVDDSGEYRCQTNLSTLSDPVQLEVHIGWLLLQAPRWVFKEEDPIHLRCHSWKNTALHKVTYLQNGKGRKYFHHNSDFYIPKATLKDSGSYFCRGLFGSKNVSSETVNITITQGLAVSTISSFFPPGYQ
The description is as above. The procedure: as §1, §2
Regarding B1, binding was characterised by a dissociation constant (Kd) of 4.4 nM.

B2 registered a Kd of 3.9 nM.

On to B3, for which the Kd was 4.3 nM.

Consider B4, for which the Kd was 6.4 nM.

Regarding B5, the Kd was determined as 6.3 nM.

Consider B6, for which the Kd turned out to be 4.4 nM.

B7 showed a Kd of 3 nM.

On to B8, for which the affinity, expressed as Kd, was 6.7 nM.

With B9, the affinity, expressed as Kd, was 3.7 nM.

In turn, B10 yielded a Kd of 3.4 nM.

For the next experiment, the target named is T6, FcγRIIIa V type extracellular domain with C-terminal His tag (human, UniProt P08637 17-208).
T6 construct: extracellular domain; also called FcgRIIIa V; FcgRIIIaV; not shown: His tag at the C terminus
T6 sequence (P08637 17-208 F176V): as the sequence (P08637 17-208) above, with F160V counted along it
The experiment is described as above. The method, then:
as §1, §2
Take B1: the affinity, expressed as Kd, was 1 nM.

The molecule B2 showed a Kd of 1.1 nM.

Molecule B3 returned a Kd of 0.89 nM.

B4 returned an equilibrium dissociation constant (Kd) of 1.7 nM.

Molecule B5 gave a Kd of 1.5 nM.

For the molecule B6, the Kd was 1.1 nM.

On to B7, for which the Kd is 0.84 nM.

For B8, binding was characterised by a dissociation constant (Kd) of 1.9 nM.

Consider B9, for which binding was characterised by a dissociation constant (Kd) of 0.78 nM.

As for B10, binding was put at a Kd of 1 nM.
